Measurements from paper PMC10467038 (Science translational medicine, 2023).

Columns and labels:
[1] = target: complement C1q (purified) (UniProt P02745 23-245; P02746 28-253; P02747 29-245); test: ELISA
[2] = target: the molecule itself; test: negative staining electron microscopy

Sequence of complement C1q (purified) (P02745 23-245, chain 1 of 3): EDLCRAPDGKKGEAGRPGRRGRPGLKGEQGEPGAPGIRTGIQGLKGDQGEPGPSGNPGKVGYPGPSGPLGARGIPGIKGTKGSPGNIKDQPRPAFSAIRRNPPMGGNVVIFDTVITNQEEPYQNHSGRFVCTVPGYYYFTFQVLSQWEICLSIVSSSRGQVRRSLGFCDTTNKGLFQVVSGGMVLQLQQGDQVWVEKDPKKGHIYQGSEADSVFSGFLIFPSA
Sequence of complement C1q (purified) (P02746 28-253, chain 2 of 3): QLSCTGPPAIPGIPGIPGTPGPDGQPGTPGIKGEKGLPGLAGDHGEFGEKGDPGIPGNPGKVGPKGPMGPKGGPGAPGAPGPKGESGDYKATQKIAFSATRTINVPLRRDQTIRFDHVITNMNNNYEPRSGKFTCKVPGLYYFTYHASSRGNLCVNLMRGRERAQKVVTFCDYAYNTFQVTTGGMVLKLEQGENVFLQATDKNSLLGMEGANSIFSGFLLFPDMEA
Sequence of complement C1q (purified) (P02747 29-245, chain 3 of 3): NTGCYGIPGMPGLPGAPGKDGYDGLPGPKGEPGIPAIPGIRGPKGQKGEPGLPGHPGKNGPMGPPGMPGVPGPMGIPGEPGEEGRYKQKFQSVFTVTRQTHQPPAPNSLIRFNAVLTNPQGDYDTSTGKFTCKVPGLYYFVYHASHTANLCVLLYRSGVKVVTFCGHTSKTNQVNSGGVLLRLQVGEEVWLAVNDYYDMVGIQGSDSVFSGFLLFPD

| Binder | Kd [1] [nM] | stoichiometry N [2] |
| --- | --- | --- |
| Nptxr/Nptx2 coexpressed on a stable doxycycline-inducible CHO cell line (complex) chain 1: MKFLAVLLAAGMLAFLGAVICIIASVPLAASPARALPGGADNASVASGAAASPGPQRSLSALHGAGGSAGPPALPGAPAASAHPLPPGPLFSRFLCTPLAAACPSGAQQGDAAGAAPGEREELLLLQSTAEQLRQTALQQEARIRADQDTIRELTGKLGRCESGLPRGLQGAGPRRDTMADGPWDSPALILELEDAVRALRDRIDRLEQELPARVNLSAAPAPVSAVPTGLHSKMDQLEGQLLAQVLALEKERVALSHSSRRQRQEVEKELDVLQGRVAELEHGSSAYSPPDAFKISIPIRNNYMYARVRKALPELYAFTACMWLRSRSSGTGQGTPFSYSVPGQANEIVLLEAGHEPMELLINDKVAQLPLSLKDNGWHHICIAWTTRDGLWSAYQDGELQGSGENLAAWHPIKPHGILILGQEQDTLGGRFDATQAFVGDIAQFNLWDHALTPAQVLGIANCTAPLLGNVLPWEDKLVEAFGGATKAAFDVCKGRAKA chain 2: GAQDSPAPGSRFVCTALPPEAVHAGCPLPAMPMQGGAQSPEEELRAAVLQLRETVVQQKETLGAQREAIRELTGKLARCEGLAGGKARGAGATGKDTMGDLPRDPGHVVEQLSRSLQTLKDRLESLEHQLRANVSNAGLPGDFREVLQQRLGELERQLLRKVAELEDEKSLLHNETSAHRQKTESTLNALLQRVTELERGNSAFKSPDAFKVSLPLRTNYLYGKIKKTLPELYAFTICLWLRSSASPGIGTPFSYAVPGQANEIVLIEWGNNPIELLINDKVAQLPLFVSDGKWHHICVTWTTRDGMWEAFQDGEKLGTGENLAPWHPIKPGGVLILGQEQDTVGGRFDATQAFVGELSQFNIWDRVLRAQEIVNIANCSTNMPGNIIPWVDNNVDVFGGASKWPVETCEERLLDL | ~2 | – |
| neuronal pentraxin 2 (purified, recombinant) (natural protein, UniProt P47972 16-431, looked up) GAQDSPAPGSRFVCTALPPEAVHAGCPLPAMPMQGGAQSPEEELRAAVLQLRETVVQQKETLGAQREAIRELTGKLARCEGLAGGKARGAGATGKDTMGDLPRDPGHVVEQLSRSLQTLKDRLESLEHQLRANVSNAGLPGDFREVLQQRLGELERQLLRKVAELEDEKSLLHNETSAHRQKTESTLNALLQRVTELERGNSAFKSPDAFKVSLPLRTNYLYGKIKKTLPELYAFTICLWLRSSASPGIGTPFSYAVPGQANEIVLIEWGNNPIELLINDKVAQLPLFVSDGKWHHICVTWTTRDGMWEAFQDGEKLGTGENLAPWHPIKPGGVLILGQEQDTVGGRFDATQAFVGELSQFNIWDRVLRAQEIVNIANCSTNMPGNIIPWVDNNVDVFGGASKWPVETCEERLLDL | – | 6 |
